± gives the uncertainty stated by the source.
assay: amyloid nucleation score (Sup35N fusion, yeast selection) (log enrichment); library NNK3; higher = more nucleation; inactive = no reads after selection
Method in brief: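 Three technical output replicates were used for random libraries. Psi-negative yeast expressing peptides of 20 random codons fused to Sup35N were induced with 100 μM copper sulfate for 24 hours and grown 7 days at 30°C on medium lacking adenine and uracil, and input and output plasmid inserts were Illumina-sequenced, excluding sequences with under 100 input reads. The nucleation score is the DiMSum log enrichment of output over input reads, centred on the mode score of non-aggregating sequences.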

| Substance | amyloid nucleation score |
| --- | --- |
| IPFTENSVPPFKGLTVSSNV | inactive |
| IPRVDLLLCLDSIGLGRSLN | inactive |
| IPSVFKLSVWGYADSTCLRR | inactive |
| IPTIVPLAQLRVSVTSVWNL | inactive |
| IPVCAWRWSG | inactive |
| IPVGIRSRFVLYSCGMTGVK | inactive |
| IQGVAWVQKAWFSRKAGVQI | inactive |
| IQGYLANDVPMRNWPG | inactive |
| IQRVGTKGDVISTFCNRQQL | inactive |
| IQWMLCAKANLIEYKGVFFI | inactive |
| IREYCFH | inactive |
| IRGDGCTGARSPTTSRAAGN | inactive |
| IRITNDNFVVRLVSQTVGLK | inactive |
| IRNFSLKPISSNLNSL | inactive |
| IRRDLYQATPRNLVWAYFGW | inactive |
| IRTARNTEETMVVACMTVGV | inactive |
| ISFSLH | inactive |
| ISILLIFPCEAVIFLPF | inactive |
| ISKWESKSSSGLDFL | inactive |
| ISLFDNNLRGWMYGVFRSIA | inactive |
| ISLGRCNNDHWRILVGTWSA | inactive |
| ISLLYVFMLNR | 2.11 ± 0.078 |
| ISLSR | inactive |
| ISPGRAGQVVSLAGHSYQAL | inactive |

| Substance | amyloid nucleation score |
| --- | --- |
| ISRGVVIGTFRRLIERSCGT | inactive |
| ISSLGKKTW | inactive |
| ISSNVWARDIRNWLNVTGYC | inactive |
| ISVGVLSVCCGIC | 2.57 ± 0.078 |
| ISVNALYNLMHKCNYNAKLR | inactive |
| ISVSRKLLKCLVKCMNPGCG | inactive |
| ITCGIKIFF | 2.76 ± 0.068 |
| ITCLNLINGGYHP | -0.066 ± 0.3 |
| ITESIVQFLAFWVRDTDYVC | inactive |
| ITFIM | inactive |
| ITGHSVLCWGNSSSTMCEMG | inactive |
| ITHFIMCPYYDYQRDGHWIT | inactive |
| ITIFDRMNH | inactive |
| ITLRDVGGHGANLWEGMQFM | inactive |
| ITMTCFCIMGAESISNLPMW | 1.33 ± 0.11 |
| ITNVWSVFKIRIGNCGFGAG | 1.9 ± 0.1 |
| ITSSVSFSRPYGVRGLLKKG | 0.002 ± 0.43 |
| ITYAQSLKLCRTRVIGGLMY | 0.445 ± 0.2 |
| IVCCGSGSEEVGKLSGRIKN | inactive |
| IVDAIILWCSKILIWVGIGQ | inactive |
| IVEGHLSIIGWYEGNFPHML | 0.145 ± 0.42 |
| IVERSGVSGIWYLSGDLAKV | inactive |
| IVFEMLPWPVG | -0.435 ± 1.9 |
| IVGNLRDKDNYIVGRLEDSD | inactive |

| Substance | amyloid nucleation score |
| --- | --- |
| IVISEALVFASGYKQVFNSV | inactive |
| IVKNDGNGHLLYTLCVFRFW | inactive |
| IVLWVFVLTITLN | inactive |
| IVMKALNAFWTRTMLMFHHM | inactive |
| IVQLVIFLSRYDVLELCMHK | 0.07 ± 0.47 |
| IVREVGTA | inactive |
| IVSKMAVYMAGTSALVLPLL | -0.086 ± 0.88 |
| IVTIFSFQYGWGFLCTRLNF | inactive |
| IVTLCSIFDFAFVVTASTMG | 1.13 ± 0.16 |
| IVVCFRSRRFCSSRYHS | inactive |
| IVVLNVNTPWSMFQGVGSIQ | 2.58 ± 0.085 |
| IVYLDIDVFFMFLCVASRTE | 1.59 ± 0.081 |
| IWGMIFIGKSSYDISDYVCH | inactive |
| IWLVLESCNVPFL | inactive |
| IWYRDSFLPSGRYWFLRINW | inactive |
| IYCYRLALF | inactive |
| IYGHCCIISAWVWGNESLVL | inactive |
| IYGLPRYFVGYGFFKSYVRL | inactive |
| IYGNFS | inactive |
| IYGNSFPEGIHRTGWESYHR | inactive |
| IYIGQFSLVVCVIIDIDI | 1.75 ± 0.11 |
| IYIVTYICPVSSRLKGLLCQ | inactive |
| IYMFVHIK | 1.68 ± 0.086 |
| IYNVFDDEDMICTSLVVSRS | inactive |

| Substance | amyloid nucleation score |
| --- | --- |
| IYRLDSSTSCICHCFLILVF | inactive |
| IYRSIRQAVLCLGLSGS | inactive |
| IYSDHAL | inactive |
| IYVGHK | inactive |
| KAAEDMRGFHCGARKSIRVD | inactive |
| KADECS | inactive |
| KAKPVSKCA | inactive |
| KALWCGYE | inactive |
| KAPDVLVNGRIL | inactive |
| KAVGRSIVYDFGSALCEMIN | 1.4 ± 0.12 |
| KAVQAVVLSLTGWFGVERLY | inactive |
| KCCTGERYSLIGFLHFCGEM | 0.891 ± 0.15 |
| KCLEGLMVVANDWWVKCFTS | 0.671 ± 0.24 |
| KCMFMEDCPLPEWSDLEVGL | inactive |
| KCSFFMFAVEKEAKNWMVTN | inactive |
| KCTFFDTCVTQTCLFNMFGC | 2.34 ± 0.063 |
| KCWPIVCNLWNREWQCSLIR | inactive |
| KCYLKSGLDNLVYDLD | inactive |
| KDYLWNILRIT | inactive |
| KEMGW | inactive |
| KEYGLFLYLNFFLDWFNFIN | inactive |
| KFCGEH | inactive |
| KFCISSKDKIF | inactive |
| KFMIVVKCSM | 0.745 ± 0.2 |

| Substance | amyloid nucleation score |
| --- | --- |
| KFNSRNRS | inactive |
| KGEDPPHCSTEIPCMSRQLL | inactive |
| KGITYLNVRFKNRCPMVFGG | inactive |
| KGLASSYRTTYAVDL | inactive |
| KGLCL | inactive |
| KGLSLGCIFKGLEFREQGVE | inactive |
| KGMDMVI | inactive |
| KGNRFPRVLGIMFAFLFGSE | inactive |
| KGSTLLSNIARMVVTCKARP | inactive |
| KICRIYAMGVLLSDTVSTMS | inactive |
| KIFSSLFRK | 0.251 ± 0.18 |
| KILLHRRHVTPCFKCLNRLD | inactive |
| KILRRNTWNMFPAALCGVSF | 0.997 ± 0.21 |
| KIMFLMGSASMDSTGTC | 0.863 ± 0.12 |
| KIQSSTNLPFGASL | inactive |
| KIRIGW | inactive |
| KISISD | inactive |
| KISLISTNCLYMVFPYRYSR | 2.13 ± 0.06 |
| KITSRGCN | inactive |
| KIVFPLNLG | inactive |
| KIYGIPYCTRVGCNLWPGAG | 0.294 ± 0.39 |
| KKYVVFNGCSPYM | inactive |
| KLCDCVMLLFTLDTRIGNVL | 0.053 ± 0.7 |
| KLCVESRIIYTFV | inactive |

| Substance | amyloid nucleation score |
| --- | --- |
| KLDLKCIIRHWV | inactive |
| KLFGRCNSNSPIVGWIRCGL | inactive |
| KLGGLSMRTSYIMPGRTFTS | inactive |
| KLGIGFPWCGRLHIEHSKMR | inactive |
| KLLCSLNLVIADEFLTKKGD | 1.85 ± 0.099 |
| KLLFLSYTYWWKSHFWRFRT | inactive |
| KLLSSGFMMFWASYQTGYWR | inactive |
| KLPGLFQLCDMCVIGLKNAY | 0.513 ± 0.17 |
| KLPMRVGLM | inactive |
| KLPVKGRMPVVF | inactive |
| KLVCRIIDAKAH | inactive |
| KLVVNSKPYMNYVSVDEIIM | inactive |
| KMHWNAGDQLYVRSPTHSLR | inactive |
| KMKSAIIPVECGSR | inactive |
| KMLQLVVGIRILVNRMSWSR | inactive |
| KMTLYIFCLAFMLWESNQII | inactive |
| KMWCNGMAISLHVRRLCQV | inactive |
| KNCIGRFW | inactive |
| KNIKTSIIYSYYALIIR | 2.47 ± 0.074 |
| KNKYQLN | inactive |
| KPNLRFLS | inactive |
| KPWGPGIIGSGSRIMTDVVE | inactive |
| KRDWHLVTMG | -0.134 ± 0.32 |
| KREAFNQALADNHQLQMLYE | 0.615 ± 0.12 |

| Substance | amyloid nucleation score |
| --- | --- |
| KRECYMIIHI | inactive |
| KRISDRIFCFCLKHGVGLFG | inactive |
| KRLFVTFFLSSLRGNILMWG | inactive |
| KRLHTS | inactive |
| KRMLCWFINKVIYLRYLWQV | inactive |
| KSERLNLVGILVSLVRPVCL | inactive |
| KSGICGCVGHLVHKPMQLRV | inactive |
| KSGIV | 0.633 ± 0.19 |
| KSQLFLMWSSSKLLTYTVQA | inactive |
| KSREWLLSYFCYGW | inactive |
| KSVNLHA | inactive |
| KTDTCRNIL | inactive |
| KTFMSCFGMGKEEGLSHFPR | inactive |
| KTHCCC | inactive |
| KTSAVRLATNIVLTFHSILY | inactive |
| KTSIRRCLSIRC | inactive |
| KVCFCSLL | 2.94 ± 0.075 |
| KVICVLFKIMKLF | 0.442 ± 0.18 |

Reference: the supplement of paper PMC12042874
